# Laboratory results from US20020110853A1.
# Target: FLAG-TWEAKR, expressed on transfected HUVEC (human) (UniProt Q9NP84)
# Test: cell-based or functional assay
# FLAG-TWEAKR, expressed on transfected HUVEC (human), sequence (Q9NP84 28-129): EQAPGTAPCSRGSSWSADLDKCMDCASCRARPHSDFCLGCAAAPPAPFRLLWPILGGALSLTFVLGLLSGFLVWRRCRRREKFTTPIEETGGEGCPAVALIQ
substance,measurement,value
M2 anti-FLAG monoclonal antibody,"BrdU incorporation of FLAG-TWEAKR expressing HUVEC, against goat anti-mouse IgG alone",3 fold
same,"BrdU incorporation of FLAG-TWEAKR expressing HUVEC, against vector-only transfected HUVEC with the cross-linking complex",6 fold
